The subject of one test is ob/ob mice. Description: Glucose tolerance test in ob/ob mice after 3 days of ZAG. In kind it is in vivo, mouse. The text has this:
FIG. 2A is a graphical diagram showing glucose tolerance of ob/ob mice treated with ZAG. Plasma glucose levels in ob/ob mice in the fed state either treated with ZAG (▪) or PBS (♦) for 3 days after […]. p<0.001 from PBS. Blood samples were removed from the tail vein at intervals after glucose administration and used for the measurement of glucose and insulin.
FIG. 2B is a graphical diagram showing plasma insulin levels in ob/ob mice treated with ZAG after oral administration of glucose (1 g/kg). p<0.001 from PBS.
To investigate this, a glucose tolerance test was performed, on fed animals, after 3 days of ZAG administration (FIG. 2A). […] The glucose uptake in gastrocnemius muscle of ZAG treated mice was greater than the response to insulin in non-treated animals.

Another test relates to murine myotubes. Description: Murine myotubes subjected to high glucose: protein degradation, protein synthesis, ROS, pPKR. Format: cell-based, mouse. Here is the method:
This utilizes murine myotubes subjected to high concentrations of glucose (10 or 25 mM). […] However the SR compound (i.e., SR59230A) can also act as a β-agonist, which it seemed to do in these experiments.
It has been shown that formation of reactive oxygen species (ROS) is important in protein degradation induced by high glucose load. […] High glucose also induces activation (phosphorylation) of PKR (FIG. 22A) and the subsequent phosphorylation of eIF2α (FIG. 22B) as is seen in skeletal muscle of ob/ob mice, which was also attenuated by ZAG.

In test [1] the test system is adipocytes and gastrocnemius muscle of ob/ob mice. Description: Glucose uptake into adipocytes and gastrocnemius muscle of ZAG-treated ob/ob mice. Format: in vivo, mouse. Here is the method: Glucose Uptake into Adipocytyes. Isolated adipocytes (5×10^4) were washed twice in 1 ml Krebs-Ringer bicarbonate buffer, pH 7.2 (KRBS) and further incubated for 10 min at room temperature in 0.5 ml KRBS containing 18.5 MBq 2-[1-^14C] deoxy-D-glucose and non-radioactive 2-deoxy-D-glucose to a final concentration of 0.1 mM. Uptake was terminated by the addition of 1 ml ice-cold glucose-free KRBS, and the cells were washed three times with 1 ml KRBS, lysed by addition of 0.5 ml 1M NaOH and left for at least 1 h at room temperature before the radioactivity was determined by liquid scintillation counting.
Glucose Uptake into Gastrocnemius Muscle—Gastrocnemius muscles were incubated in Krebs-Henseleit bicarbonate buffer for 45 min at 37° C. and then incubated for a further 10 min in 5 ml Krebs-Henseleit buffer containing 185M Bq 2-[1-^14C] deoxy-D-glucose and non-radioactive 2-deoxy-D-glucose to a final concentration of 0.1 mM. The muscles were then removed and washed in 0.9% NaCl for 5 min followed by dissolution in 0.5 ml 1M NaOH and the radioactivity was determined by liquid scintillation counting.

A further test deals with T1, human β1-AR (Homo sapiens, UniProt P08588).
T1 construct: host or cells: CHO-K1
T1 sequence (P08588 whole entry): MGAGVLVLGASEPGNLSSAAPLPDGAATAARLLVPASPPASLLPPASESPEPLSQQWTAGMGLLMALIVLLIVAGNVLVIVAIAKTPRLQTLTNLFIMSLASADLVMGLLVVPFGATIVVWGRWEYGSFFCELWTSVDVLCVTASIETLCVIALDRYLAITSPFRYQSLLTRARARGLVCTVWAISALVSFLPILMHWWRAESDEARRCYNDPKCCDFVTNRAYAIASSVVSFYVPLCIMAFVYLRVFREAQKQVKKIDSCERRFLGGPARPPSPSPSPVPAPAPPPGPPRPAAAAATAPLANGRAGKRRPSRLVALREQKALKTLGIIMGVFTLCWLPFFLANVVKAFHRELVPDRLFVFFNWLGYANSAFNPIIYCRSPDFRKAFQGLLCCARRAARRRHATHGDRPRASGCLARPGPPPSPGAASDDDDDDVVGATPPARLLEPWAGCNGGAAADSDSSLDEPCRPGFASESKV
The experiment in a line: [125I] ZAG binding to crude membranes of CHO-K1 β1 cells. Here is the method: [^125I] labelling of ZAG. One iodo bead that had been washed and dried was incubated with Na [^125I] (1 mCi per 100 μg protein) for 5 min in PBS, then ZAG (100 μg protein) was added and left for a further 15 min. The reaction was terminated by removal of the iodo bead, while free Na [^125I] was removed using a Sephadex G25 column eluted with 0.1MNaI. The [^125I] ZAG was concentrated against PBS using a Microcon microconcentrator with a filter cut-off of Mr 10,000. The specific activity of the [^125I] ZAG was 8 Cimg protein^1.
For binding studies cells were sonicated in 2 mM Tris HCl, pH7.5, containing […] and crude total membranes were pelleted by centrifugation (13,000 g; 15 min) at 4° C. Binding studies were carried out at 37° C. by incubating membranes (500 μg protein) in 0.4 ml 50 mM Tris HCl, pH 7.5, containing 0.5 mM MgCl2 for 60 min with various concentrations of [^125I] ZAG (3,000 to 15,000 cpm) in the absence or presence of 100 μM non-labelled ZAG. The membranes were then precipitated by centrifugation at 13000 g for 20 min, the supernatant was removed and the [^125I] bound to the pellet was quantitated using a Packard Corbra Model 5005 Auto-gamma counter. Binding was analysed using non-linear regression analysis (GraphPad Prism, Version 5.04). Specific binding was regarded as the amount of labelled ZAG displaced by non-radioactive ZAG.

For the next test, the system named is adipocytes, BAT. The experiment in a line: Expression of ZAG, HSL, UCP in adipose tissue/adipocytes of mice (5 day ZAG study). In kind it is in vivo, mouse. Here is the method: Western Blot Analysis. Freshly excised gastrocnemius muscles were washed in PBS and lysed in PHOSPHOSAFE™ Extraction Reagent for 5 min at room temperature followed by sonication at 4° C. The lysate was cleared by centrifugation at 18,000 g for 5 min at 4° C. and samples of cytosolic protein (5 μg) were resolved on 12% sodium dodecyl sulfate-polyacrylamide gel electrophoresis at 180V for approximately 1 h. This was followed by transference to 0.45 μm nitrocellulose membranes, which were then blocked with 5% Marvel in Tris-buffered saline, pH 7.5, at 4° C. overnight. Both primary and secondary antibodies were used at a dilution of 1:1000 except anti-myosin (1:250). Incubation was for 1 h at room temperature, and development was by ECL. Blots were scanned by a densitometer to quantify differences.
A 5 day study was performed where ZAG was administered at 35 μg per day i.v. on a daily basis for 5 days. At the end of the experiment tissues were removed and blotted, or functional assays were carried out with isolated adipocytes. […] When ep adipocytes were prepared and maintained in tissue culture (RPMI 1640+10% FCS) ZAG expression was maintained for a further 3 days, even though no ZAG was added to the culture medium (FIG. 6B). […] In fact, as discussed above, too much ZAG is more likely to lead to resistance rather than an increased response.

Setting [2] is: 10 or 25 mM glucose, ZAG 25 μg/ml.

B1: ZAG: recombinant full length human zinc-α2-glycoprotein (SEQ ID NO: 1) secreted by transfected HEK293F cells; lipid mobilizing factor (protein, listed as Homo sapiens)
chain: QENQDGRYSLTYIYTGLSKHVEDVPAFQALGSLNDLQFFRYNSKDRKSQPMGLWRQVEGMEDWKEDSQLQKAREDMETLKDIVEYYNDSNGSHVLQGRFGCEIENNRSSGAFWKYYYDGKDYIEFNKEIPAWVPFDPAAQITKQKWEAEPVYVQRAKAYLEEECPATLRKYLKYSKNILDRQDPPSVVVTSHQAPGEKKKLKCLAYDFYPGKIDVHWTRAGQVQEPELRGDVLHNGNGTYQSWVVVAVPPQDTAPYSCHVQHSSLAQPLVVPWEAS
For B1, the “blood glucose levels in glucose tolerance test” value with ob/ob mice (fed ob/ob mice, after 3 days of ZAG) is “only a small rise”. The “plasma insulin levels in glucose tolerance test” value in the test on ob/ob mice (ob/ob mice, 60 min of observation) is listed as “significantly lower”. In the test on murine myotubes (setting [2]), the “effect on depression of protein synthesis by high glucose” value is “completely attenuated” and the “effect on protein degradation stimulated by high glucose” value was “completely attenuated”. Further, in the test with murine myotubes (myotubes), the “effect on glucose-induced phosphorylation of PKR and eIF2α” value is on record as “attenuated”; the “effect on increase in ROS produced by glucose” value is recorded as “completely attenuates”. Further, the “glucose uptake into gastrocnemius muscle” value in test [1] (absence and presence of insulin (100 nM)) was “significantly enhanced”. Moreover, in test [1] (absence of insulin, ob/ob mice treated 5 days), the “glucose uptake into epididymal, visceral and subcutaneous adipocytes” value is “increased glucose uptake”. Further, the “binding to the β1-AR” value with human β1-AR is recorded as “no binding”. In addition, in the test on adipocytes, BAT (35 μg per day i.v., 5 days), the “ZAG expression in epididymal, subcutaneous and visceral fat” value is reported as “about two-fold”. For the same molecule, in the test with adipocytes, BAT (adipocytes from ZAG treated mice, isoprenaline 10 μM), the “time increased response to isoprenaline was maintained in tissue culture without ZAG” value came out at 4 days. In the test with adipocytes, BAT (adipocytes of non-obese mice, 3 h), the “expression of phospho HSL in adipocytes” value is “increased expression of phospho HSL”. Besides, the “expression of UCP1 and UCP3 in BAT” value in the test on adipocytes, BAT (ob/ob mice treated 5 days) is given as “increased the expression of UCP1”.

The values are drawn from US10077295B2, “Glycoproteins having lipid mobilizing properties and therapeutic uses thereof” (Aston University, priority 2010, dated 2018).
